Experimental data reported in patent publication US20180282418A1 (CANCER RESEARCH TECHNOLOGY, published 2018).
Changes are numbered by the printed parent chain.

T1: CLEC14A with regions 122-142 of CD141 (human, UniProt Q86T13 22-490)
T1 construct: also called 122-142 chimera; not shown: C-terminal GFP tag (all constructs have one)
T1 sequence: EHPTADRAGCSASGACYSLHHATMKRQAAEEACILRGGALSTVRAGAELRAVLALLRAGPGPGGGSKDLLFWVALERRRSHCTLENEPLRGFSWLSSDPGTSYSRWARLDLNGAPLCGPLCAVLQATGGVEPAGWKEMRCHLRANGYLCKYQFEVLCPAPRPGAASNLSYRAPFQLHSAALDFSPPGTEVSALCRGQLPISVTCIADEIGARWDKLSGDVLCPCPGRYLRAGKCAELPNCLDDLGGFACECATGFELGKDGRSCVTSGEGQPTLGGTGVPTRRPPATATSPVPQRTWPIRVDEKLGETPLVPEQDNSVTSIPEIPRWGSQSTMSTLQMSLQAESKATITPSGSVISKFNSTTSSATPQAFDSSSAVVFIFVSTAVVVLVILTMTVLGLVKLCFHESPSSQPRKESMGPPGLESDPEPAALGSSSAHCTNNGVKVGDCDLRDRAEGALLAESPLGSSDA

T2: full-length human MMRN2 with a His tag overexpressed in HEK293T cells (human, UniProt Q9H8L6 23-949)
T2 construct: Used as lysate of transfected HEK293T cells; also called hMMRN2; MMRN2 protein lysate; not shown: His tag of the pHL-Avitag3 vector
T2 sequence: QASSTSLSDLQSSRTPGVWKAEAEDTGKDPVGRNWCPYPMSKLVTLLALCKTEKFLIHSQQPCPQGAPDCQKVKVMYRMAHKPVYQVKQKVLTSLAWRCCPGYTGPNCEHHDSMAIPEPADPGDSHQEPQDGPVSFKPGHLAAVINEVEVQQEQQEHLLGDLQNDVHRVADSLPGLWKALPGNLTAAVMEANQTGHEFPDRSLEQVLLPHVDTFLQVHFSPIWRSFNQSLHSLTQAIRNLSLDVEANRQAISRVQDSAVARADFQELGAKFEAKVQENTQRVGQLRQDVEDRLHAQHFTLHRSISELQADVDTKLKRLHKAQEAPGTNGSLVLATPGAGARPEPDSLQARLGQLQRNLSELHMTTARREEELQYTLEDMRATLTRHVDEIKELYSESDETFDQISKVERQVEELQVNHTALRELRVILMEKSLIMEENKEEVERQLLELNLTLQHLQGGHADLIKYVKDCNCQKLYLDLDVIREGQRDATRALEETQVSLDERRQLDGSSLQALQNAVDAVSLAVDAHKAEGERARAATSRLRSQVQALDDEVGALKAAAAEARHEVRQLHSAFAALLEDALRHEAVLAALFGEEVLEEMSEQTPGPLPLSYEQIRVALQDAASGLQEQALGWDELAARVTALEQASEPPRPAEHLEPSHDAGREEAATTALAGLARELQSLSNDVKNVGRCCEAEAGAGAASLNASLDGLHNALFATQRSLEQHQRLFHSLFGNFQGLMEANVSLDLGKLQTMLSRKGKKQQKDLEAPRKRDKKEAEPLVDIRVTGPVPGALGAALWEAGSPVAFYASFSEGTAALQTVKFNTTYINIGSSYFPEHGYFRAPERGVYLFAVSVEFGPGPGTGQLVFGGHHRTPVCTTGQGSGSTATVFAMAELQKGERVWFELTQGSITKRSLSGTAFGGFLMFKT

B1: CLEC14A monoclonal antibody C4 (antibody, V domains shown)
VH: QVQLQQSGAELMKPGASVKISCKATGYTFSSYWIEWVNRRPGHGLEWIGEILPGSGSTNYNEKFKGKATFTADTSSNTAYMQLSSLTSEDSAVYYCARGGDYDEEYYLMDYWGQGTTLTVSS
VL: QIVLTQSPAIMSASPGEKVTMTCSASSSVSYMYWYQQKPGSSPRLLIYDTSNLASGVPVRFSGSGSGTSYSLTISRMEAEDAATYYCQQWSSYPLTFGAGTKLEIKR
notes: Mouse monoclonal antibody raised against murine CLEC14A-Fc; The entries carry cloning residues (N-terminal MA on VH, C-terminal AA on VL); also called CRT4; clone C4
B2: CLEC14A monoclonal antibody C5 (antibody, V domains shown)
VH: AEVQLQQSGAELMKPGASVKISCKATGYTFSSYWIEWVNQRPGHGLEWIGEILPGSGSTNYNEKFKGKATFTADTSSNTAYMQLSSLTSEDSAVYYCARGGDYDEEYYAMDYWGQGTSVTL
VL: B1 VL with A82G, I105L
notes: CLEC14A monoclonal antibody; also called CRT5
B3: HA-CLEC14A (CLEC14A wild type with an N-terminal HA tag) expressed in HEK293T cells (receptor)
chain: EHPTADRAGCSASGACYSLHHATMKRQAAEEACILRGGALSTVRAGAELRAVLALLRAGPGPGGGSKDLLFWVALERRRSHCTLENEPLRGFSWLSSDPGGLESDTLQWVEEPQRSCTARRCAVLQATGGVEPAGWKEMRCHLRANGYLCKYQFEVLCPAPRPGAASNLSYRAPFQLHSAALDFSPPGTEVSALCRGQLPISVTCIADEIGARWDKLSGDVLCPCPGRYLRAGKCAELPNCLDDLGGFACECATGFELGKDGRSCVTSGEGQPTLGGTGVPTRRPPATATSPVPQRTWPIRVDEKLGETPLVPEQDNSVTSIPEIPRWGSQSTMSTLQMSLQAESKATITPSGSVISKFNSTTSSATPQAFDSSSAVVFIFVSTAVVVLVILTMTVLGLVKLCFHESPSSQPRKESMGPPGLESDPEPAALGSSSAHCTNNGVKVGDCDLRDRAEGALLAESPLGSSDA
notes: also called CLEC14A wild type (WT); not shown: N-terminal HA tag
B4: CLEC14A with regions 97-108 of CD141 (receptor)
chain: EHPTADRAGCSASGACYSLHHATMKRQAAEEACILRGGALSTVRAGAELRAVLALLRAGPGPGGGSKDLLFWVALQLPPGCGDPKRLPLRGFSWLSSDPGGLESDTLQWVEEPQRSCTARRCAVLQATGGVEPAGWKEMRCHLRANGYLCKYQFEVLCPAPRPGAASNLSYRAPFQLHSAALDFSPPGTEVSALCRGQLPISVTCIADEIGARWDKLSGDVLCPCPGRYLRAGKCAELPNCLDDLGGFACECATGFELGKDGRSCVTSGEGQPTLGGTGVPTRRPPATATSPVPQRTWPIRVDEKLGETPLVPEQDNSVTSIPEIPRWGSQSTMSTLQMSLQAESKATITPSGSVISKFNSTTSSATPQAFDSSSAVVFIFVSTAVVVLVILTMTVLGLVKLCFHESPSSQPRKESMGPPGLESDPEPAALGSSSAHCTNNGVKVGDCDLRDRAEGALLAESPLGSSDA
notes: also called this mutant; not shown: C-terminal GFP tag (all constructs have one)

Assays:
[1] = molecular target: T1, CLEC14A with regions 122-142 of CD141; assay: flow cytometry; the filing says the chimera did not fold correctly
[2] = molecular target: B4; assay: flow cytometry on HEK293T cells
[3] = molecular target: Chimera 6 (CLEC14A with SUSHI of CD141) fused to GFP tag; assay: flow cytometry on GFP-gated HEK293T cells
Experimental: (§1) FIG. 15—Binding of CRT antibodies was analysed using flow cytometry. All constructs have a C-terminus GFP tag so green cells were gated and stained red. All CRT antibodies bind to CLEC14A wild type with a C terminal GFP tag expressed in HEK293T cells. None of the CRT antibodies bind to wild type thrombomodulin with GFP tag expressed in HEK293T cells.
(§2) Binding of CRT antibodies was analysed using flow cytometry. All constructs have a C-terminus GFP tag so green cells were gated and stained red. All CRT antibodies bind WT CLEC14A and—as expected—none binds to WT CD141 (FIG. 15). In addition, none of the antibodies bound to Chimera 5 (except slight binding by CRT2) and all of the antibodies bind to Chimera 6 (except CRT2) (FIG. 15). This confirms that the binding site of the antibodies CRT1, 3, 4 and 5 and MMRN2 are within the C type lectin domain. It is possible that CRT2 binds on a region between the CTLD and sushi domain.

[4] = molecular target: T3, wild type thrombomodulin with GFP tag expressed in HEK293T cells (UniProt P07204 19-575); assay: flow cytometry on GFP-gated HEK293T cells
T3 construct: whole, on cells; also called WT CD141; CD141; not shown: C-terminal GFP tag
T3 sequence (P07204 19-575): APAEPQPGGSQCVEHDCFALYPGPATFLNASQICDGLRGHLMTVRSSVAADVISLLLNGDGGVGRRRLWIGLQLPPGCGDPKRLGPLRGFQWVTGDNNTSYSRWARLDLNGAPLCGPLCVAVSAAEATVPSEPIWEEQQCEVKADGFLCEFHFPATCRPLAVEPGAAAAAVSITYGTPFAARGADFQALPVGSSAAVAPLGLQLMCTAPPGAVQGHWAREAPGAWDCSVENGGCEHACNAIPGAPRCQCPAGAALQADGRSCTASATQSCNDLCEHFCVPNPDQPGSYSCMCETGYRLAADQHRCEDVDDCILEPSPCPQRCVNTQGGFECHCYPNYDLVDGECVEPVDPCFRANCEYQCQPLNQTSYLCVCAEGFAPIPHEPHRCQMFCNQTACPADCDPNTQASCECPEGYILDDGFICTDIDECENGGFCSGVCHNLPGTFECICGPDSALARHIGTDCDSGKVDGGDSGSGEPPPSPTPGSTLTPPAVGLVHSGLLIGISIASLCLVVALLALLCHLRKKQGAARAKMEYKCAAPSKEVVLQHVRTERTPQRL
Experimental: as §1, §2

[5] = molecular target: T2, full-length human MMRN2 with a His tag …; assay: far Western blot of HEK293T lysates with MMRN2 protein lysate, non-reduced
Description: FIG. 13—MMRN2 directly binds to either the C-type lectin or sushi domain of CLEC14A under non-reduced conditions. HEK293T cells were mock transfected or transfected with pCS2 vectors containing CLEC14A wild type (WT) or constructs with each major domain deleted (Δ) with an N-terminal HA tag. Upon far western blotting with MMRN2 protein lysate, binding can be seen in all mutants except those missing the C-type lectin domain (CTLD) or the sushi domain. An anti-HA blot was included to show all mutant proteins were expressed.

[6] = molecular target: T2, full-length human MMRN2 with a His tag …; assay: method for MMRN2 not told

binding result [1] | binding result [2] | binding result [3] | binding result [4] | binding result [5] | binding result [6] | Binder
no binding | no binding | binds | no binding |  |  | B1
no binding | no binding |  | no binding |  |  | B2
 |  |  |  | binds |  | B3
 |  |  |  |  | no binding | B4
